Test results taken from US20090022714A1, “Combination methods of inhibiting tumor growth with a vascular endothelial growth factor receptor antagonist” (ImClone Systems, Inc., priority 2001, published 2009).
One block for each molecule: values may come before it.

Columns and labels:
[1] = tested on: KDR (VEGFR-2), KDR (VEGFR-2)(1-3), KDR (VEGFR-2)(3); assay: Binding epitope mapping with KDR Ig-domain deletion variants; design: species or system human
Method: The production of KDR (VEGFR-2) extracellular Ig-like domain deletion variants has been previously described (Lu et al. (2000)). In an epitope-mapping assay, full length KDR (VEGFR-2)-AP, Ap fusions of two KDR (VEGFR-2) Ig-domain deletion variants, and Flk-1-AP were first immobilized onto a 96-well plate (Nunc) using a rabbit anti-AP antibody (DAKO-immunoglobulins, Glostrup, Denmark) as the capture reagent. The plate was then incubated with various anti-KDR (VEGFR-2) Fab proteins at RT for 1 h, followed by incubation with a rabbit anti-human Fab antibody-HRP conjugate. The plate was washed and developed as described above.

[2] = target: T1, KDR (VEGFR-2) (Homo sapiens, UniProt P35968); assay: Direct binding assay of Fab to KDR; design: the cDNA for KDR (VEGFR-2) extracellular domain is fused in-frame with the cDNA for human placental AP; made in house; host or cells: stably transfected NIH 3T3 cells, purified from supernatant on anti-AP antibody
Method: In a direct binding assay, various amounts of soluble Fab proteins were added to KDR (VEGFR-2)-coated 96-well Maxi-sorp microtiter plates and incubated at RT for 1 h, after which the plates were washed 3 times with PBST. The plates were then incubated at RT for 1 h with 100 Φl of a rabbit anti-human Fab antibody-HRP conjugate (Jackson ImmunoResearch Laboratory Inc., West Grove, Pa.). The plates were washed and developed following the procedure described above for the phage ELISA. […] Absorbance at 405 nm was measured to quantify the bound KDR (VEGFR-2)-AP molecules (8).
Target sequence in this assay (P35968 20-764 limits assumed): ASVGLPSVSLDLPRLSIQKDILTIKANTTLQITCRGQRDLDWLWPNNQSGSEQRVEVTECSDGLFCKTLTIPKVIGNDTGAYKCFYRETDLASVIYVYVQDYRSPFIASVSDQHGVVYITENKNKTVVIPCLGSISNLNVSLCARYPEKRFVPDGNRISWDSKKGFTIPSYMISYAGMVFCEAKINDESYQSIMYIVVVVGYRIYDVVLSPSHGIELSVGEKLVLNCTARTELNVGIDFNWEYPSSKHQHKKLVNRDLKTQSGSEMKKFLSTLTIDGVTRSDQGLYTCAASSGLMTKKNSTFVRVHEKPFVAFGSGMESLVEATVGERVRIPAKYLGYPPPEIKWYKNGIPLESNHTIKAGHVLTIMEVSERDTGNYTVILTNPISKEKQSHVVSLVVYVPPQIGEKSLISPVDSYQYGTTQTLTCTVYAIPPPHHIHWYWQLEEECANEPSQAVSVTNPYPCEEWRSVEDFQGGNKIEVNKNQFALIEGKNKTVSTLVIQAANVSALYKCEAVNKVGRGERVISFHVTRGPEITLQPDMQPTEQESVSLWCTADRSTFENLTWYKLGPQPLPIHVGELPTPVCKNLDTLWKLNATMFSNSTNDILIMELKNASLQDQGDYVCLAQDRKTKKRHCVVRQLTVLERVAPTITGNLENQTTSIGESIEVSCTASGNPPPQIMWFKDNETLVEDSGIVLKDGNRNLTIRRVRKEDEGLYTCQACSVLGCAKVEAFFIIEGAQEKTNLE

[3] = target: T1, KDR (VEGFR-2); assay: BIAcore analysis of soluble Fab; type: binding; design: the cDNA for KDR (VEGFR-2) extracellular domain is fused in-frame with the cDNA for human placental AP; made in house; host or cells: stably transfected NIH 3T3 cells, purified from supernatant on anti-AP antibody; details: mean±SE
Method: The binding kinetics of soluble Fab proteins to KDR (VEGFR-2) were measured by surface plasmon resonance using a BIAcore biosensor (Pharmacia Biosensor). KDR (VEGFR-2)-AP fusion protein was immobilized onto a sensor chip and soluble Fab proteins were injected at concentrations ranging from 1.5 nM to 100 nM. Sensorgrams were obtained at each concentration and were evaluated using a program, BIA Evaluation 2.0, to determine the rate constants kon and koff Kd was calculated from the ratio of rate constants koff/kon.
Target sequence in this assay (P35968 20-764 limits assumed): as above

[4] = tested on: KDR (VEGFR-2)-expressing HUVEC; assay: FACS analysis of c-p1C11 on HUVEC; type: binding, human; details: 5 μg/ml
Method: Early passage HUVEC cells were grown in growth factor-depleted EBM-2 medium overnight to induce the expression of KDR (VEGFR-2). The cells were harvested and washed three times with PBS, incubated with c-p1C11 IgG (5 μg/ml) for 1 h at 4° C., followed by incubation with a FITC labeled rabbit anti-human Fc antibody (Capper, Organon Teknika Corp., West Chester, Pa.) for an additional 60 min. The cells were washed and analyzed by a flow cytometer (Model EPICS®, Coulter Corp., Edison, N.J.).

[5] = target: T2, KDR (VEGFR-2) binding to VEGF (Homo sapiens, UniProt P35968); assay: Competitive VEGF binding assay, first assay (KDR-AP to immobilized VEGF165); details: FIG. 22
T2 construct: the cDNA for KDR (VEGFR-2) extracellular domain is fused in-frame with the cDNA for human placental AP; made in house; host or cells: stably transfected NIH 3T3 cells, purified from supernatant on anti-AP antibody
T2 sequence (P35968 20-764 limits assumed): as above
Method: In the first assay, various amounts of antibodies were mixed with a fixed amount of KDR (VEGFR-2)-AP (50 ng) and incubated at room temperature for 1 h.

[6] = target: T3, immobilized KDR (VEGFR-2) receptor (Homo sapiens, UniProt P35968); assay: Competitive VEGF binding assay, second assay (radiolabeled VEGF165 to immobilized KDR); details: FIG. 23
T3 construct: the cDNA for KDR (VEGFR-2) extracellular domain is fused in-frame with the cDNA for human placental AP; human placental alkaline phosphatase (AP), inferred for these assays; made in house; host or cells: NIH 3T3 (inferred: the only KDR protein whose making is described)
T3 sequence (P35968 20-764 limits assumed): as above

[7] = tested on: p44/p42 MAP kinases; assay: MAP kinase phosphorylation assay in HUVEC (chimeric IgG); type: cell-based, human
Method: (§1) Subconfluent HUVEC cells were grown in growth factor depleted EBM-2 medium for 24 to 48 h prior to experimentation. […] The cells were then lysed in lysis buffer ([…], 150 mM NaCl, 1% NP-40, 2 mM EDTA, 0.25% sodium deoxycholate, 1 mM PMSF, 1 μg/ml leupeptin, 1 μg/ml pepstatin, 10 μg/ml aprotinin, pH 7.5) and the cell lysate used for both the KDR (VEGFR-2) and MAP kinase phosphorylation assays. The KDR (VEGFR-2) receptor was immunoprecipitated from the cell lysates with Protein A Sepharose beads (Santa Cruz Biotechnology, Inc., CA) coupled to an anti-KDR (VEGFR-2) antibody, Mab 4.13 (ImClone Systems). Proteins were resolved with SDS-PAGE and subjected to Western blot analysis. To detect KDR (VEGFR-2) phosphorylation, blots were probed with an antiphosphotyrosine Mab, PY20 (ICN Biomedicals, Inc. Aurora, Ohio). For the MAP kinase activity assay, cell lysates were resolved with SDS-PAGE followed by Western blot analysis using a phospho-specific MAP kinase antibody (New England BioLabs, Beverly, Mass.). All signals were detected using ECL (Amersham, Arlington Heights, Ill.). In both assays, the blots were reprobed with a polyclonal anti-KDR (VEGFR-2) antibody (ImClone Systems) to assure that equal amount of protein was loaded in each lane of SDS-PAGE gels.

[8] = tested on: HUVEC; assay: Anti-mitogenic assay, [3H]-TdR, HUVEC (chimeric IgG and scFv); type: cell-based, human; details: FIG. 24
Method: The effect of anti-KDR (VEGFR-2) antibodies on VEGF-stimulated mitogenesis of human endothelial cells was determined with a [^3H]-TdR DNA incorporation assay using HUVEC. […] After 18 hours of incubation, 0.25 μCi of [^3H]-TdR was added to each well and incubated for an additional 4 hours. DNA incorporated radioactivity was determined with a scintillation counter. The data shown in FIG. 24 are representative of at least three separate experiments.

[9] = target: T1, KDR (VEGFR-2); assay: KDR phosphorylation assay in HUVEC (chimeric IgG); type: cell-based; design: endogenous in cells; host or cells: HUVEC, early passage
Method: as §1
Target sequence in this assay (P35968 20-1356): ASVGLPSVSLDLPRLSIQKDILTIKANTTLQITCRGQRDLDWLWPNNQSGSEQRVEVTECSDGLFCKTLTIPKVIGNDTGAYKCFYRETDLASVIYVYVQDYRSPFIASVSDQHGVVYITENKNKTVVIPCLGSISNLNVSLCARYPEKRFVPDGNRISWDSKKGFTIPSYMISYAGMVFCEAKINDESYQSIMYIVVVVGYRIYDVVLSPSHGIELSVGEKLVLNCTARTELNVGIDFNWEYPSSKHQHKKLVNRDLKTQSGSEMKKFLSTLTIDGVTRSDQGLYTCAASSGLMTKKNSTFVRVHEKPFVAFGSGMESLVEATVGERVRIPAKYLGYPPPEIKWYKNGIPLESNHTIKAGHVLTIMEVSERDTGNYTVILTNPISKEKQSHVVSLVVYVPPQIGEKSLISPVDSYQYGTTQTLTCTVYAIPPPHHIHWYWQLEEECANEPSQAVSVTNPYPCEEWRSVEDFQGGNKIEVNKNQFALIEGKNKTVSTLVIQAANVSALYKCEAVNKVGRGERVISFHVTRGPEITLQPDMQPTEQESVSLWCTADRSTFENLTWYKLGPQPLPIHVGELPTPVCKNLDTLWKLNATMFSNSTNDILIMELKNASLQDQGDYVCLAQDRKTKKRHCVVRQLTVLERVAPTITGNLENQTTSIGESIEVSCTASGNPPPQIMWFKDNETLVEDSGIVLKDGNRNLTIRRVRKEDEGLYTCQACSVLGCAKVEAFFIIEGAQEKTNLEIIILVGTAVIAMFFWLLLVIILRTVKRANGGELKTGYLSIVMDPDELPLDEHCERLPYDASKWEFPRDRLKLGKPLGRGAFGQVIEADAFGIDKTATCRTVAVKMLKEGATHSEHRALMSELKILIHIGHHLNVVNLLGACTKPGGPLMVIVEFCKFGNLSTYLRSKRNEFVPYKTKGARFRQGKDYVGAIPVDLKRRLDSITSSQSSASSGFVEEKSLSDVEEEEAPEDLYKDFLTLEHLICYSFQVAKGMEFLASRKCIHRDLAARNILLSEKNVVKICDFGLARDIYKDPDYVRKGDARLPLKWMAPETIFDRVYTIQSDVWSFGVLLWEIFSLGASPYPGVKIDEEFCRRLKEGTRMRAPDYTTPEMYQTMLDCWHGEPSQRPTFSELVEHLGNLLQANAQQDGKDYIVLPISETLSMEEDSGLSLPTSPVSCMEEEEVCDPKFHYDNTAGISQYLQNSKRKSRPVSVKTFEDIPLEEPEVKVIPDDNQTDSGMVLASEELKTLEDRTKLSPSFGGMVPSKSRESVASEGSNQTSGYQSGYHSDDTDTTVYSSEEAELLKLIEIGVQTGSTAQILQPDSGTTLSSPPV

[10] = target: T1, KDR (VEGFR-2); assay: Quantitative KDR binding assay (chimeric IgG and scFv); design: the cDNA for KDR (VEGFR-2) extracellular domain is fused in-frame with the cDNA for human placental AP; made in house; host or cells: stably transfected NIH 3T3 cells, purified from supernatant on anti-AP antibody; details: ELISA, FIG. 20
Method: Various amounts of antibodies were added to KDR (VEGFR-2)-coated 96-well Maxi-sorp microtiter plates (Nunc. Danmark) and incubated at room temperature for 1 h, after which the plates were washed 3 times with PBS containing 0.1% Tween-20. The plates were then incubated at RT for 1 h with 100 ul of mouse anti-E tag antibody-HRP conjugate (Pharmacia Biotech) for the scFv, or rabbit anti-human IgG Fc specific antibody-HRP conjugate (Cappel, Organon Teknika Corp.) for the chimeric IgG. The plates were washed 5 times, TMB peroxidase substrate (KPL, Gaithersburg, Md.) added, and the OD at 450 nm read using a microplate reader (Molecular Device, Sunnyvale, Calif.).
Target sequence in this assay (P35968 20-764 limits assumed): as the sequence (P35968 20-764 limits assumed) above

[11] = target: T1, KDR (VEGFR-2); assay: BIAcore analysis of p1C11 scFv, c-p1C11 and VEGF; type: binding; design: the cDNA for KDR (VEGFR-2) extracellular domain is fused in-frame with the cDNA for human placental AP; made in house; host or cells: stably transfected NIH 3T3 cells, purified from supernatant on anti-AP antibody; details: BIAcore, Table 2
Method: The binding kinetics of antibodies to KDR (VEGFR-2) were measured using BIAcore biosensor (Pharmacia Biosensor). […] Sensorgrams were obtained at each concentration and were evaluated using a program, BIA Evaluation 2.0, to determine the rate constants kon and koff. Kd was calculated as the ratio of rate constants koff/kon.
Target sequence in this assay (P35968 20-764 limits assumed): as above

Sequence of KDR (VEGFR-2), KDR (VEGFR-2)(1-3), KDR (VEGFR-2)(3) (P35968 224-327 limits assumed): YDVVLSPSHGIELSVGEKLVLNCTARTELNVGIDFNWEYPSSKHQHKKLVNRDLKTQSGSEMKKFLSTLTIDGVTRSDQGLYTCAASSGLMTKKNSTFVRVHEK

efficiency of binding to KDR [2]: more efficient binders
koff [3]: 4.87 ± 0.18 10^−4 S^−1
kon [3]: 12.4 ± 2.9 10^4 M^−1S^−1
B1: D2H2: human anti-KDR (VEGFR-2) VEGF-blocking Fab clone (antibody, V domains shown)
VH: EVQLVQSGGGLVKPGGSLRLSCAASGFTFSSYSMNWVRQAPGKGLEWVSSISSSSSYIYYADSVKGRFTISRDNAKDSLYLQMNSLRAEDTAVYYCARVTDAFDIWGQGTMVTVSS
VL: DIQLTQSPSSVSASVGDRVTITCRASQGISSRLAWYQQKPGKAPKLLIYAASSLQTGVPSRFSGSGSGTDFTLTISSLQPEDFATYYCQQANRFPPTFGPGTKVDIK
location of binding epitope(s) [1]: broader binding epitope(s) within KDR (VEGFR-2) Ig domains 1 to 3

competition with 125I labeled VEGF for binding to immobilized KDR [6]: efficiently compete
inhibition of FGF-stimulated activation of p44/p42 MAP kinases ([7]; FGF 10 ng/ml, not shown): does not inhibit
inhibition of VEGF-stimulated activation of p44/p42 MAP kinases ([7]; VEGF165 20 ng/ml): effectively inhibits
inhibition of VEGF-stimulated phosphorylation (activation) of KDR receptor ([9]; VEGF165 20 ng/ml): effectively inhibits
koff [11]: 0.52 10^−4 s^−1
kon [11]: 0.63 10^5 M^−1s^−1
B2: c-p1C11: chimeric p1C11 IgG1: p1C11 variable domains with human κ and γ1 constant regions (antibody, V domains shown)
VH: QVKLQQSGAELVGSGASVKLSCTTSGFNIKDFYMHWVKQRPEQGLEWIGWIDPENGDSDYAPKFQGKATMTADSSSNTAYLQLSSLTSEDTAVYYCNAYYGDYEGYWGQGTTVTVSS
VL: DIELTQSPAIMSASPGEKVTITCSASSSVSYMHWFQQKPGTSPKLWIYSTSNLASGVPARFSGSGSGTSYSLTISRMEAEDAATYYCQQRSSYPFTFGSGTKLEIK
binding to KDR expressed on early passage HUVEC [4]: binds specifically to KDR (VEGFR-2) expressed on early passage HUVEC
blocking of KDR binding to immobilized VEGF [5]: block KDR (VEGFR-2) receptor from binding to immobilized VEGF in a dose-dependent manner
inhibitory effect on VEGF-stimulated mitogenesis of HUVEC [8]: effectively inhibit mitogenesis of HUVEC stimulated by VEGF
effect of antibody alone on activity of KDR receptor and p44/p42 MAP kinases ([9]; without VEGF): Neither c-p1C11, nor C225 alone has any effects
direct binding to immobilized KDR [10]: binds more efficiently to immobilized KDR (VEGFR-2) than the parent scFv
direct binding to immobilized KDR ([10]; listed as C-p1C11): bind more efficiently to immobilized KDR (VEGFR-2) receptor than the parent scFv
